Experimental data published in patent US20200223889A1, “Bicyclic Compounds Capable of Binding to Melanocortin 4 Receptor” (Novo Nordisk A/S, priority 2017, published 2020).
Positions of bridges follow the written chain, without caps; N, C: chain ends. Non-standard residues stand in square brackets, D forms with d. Hyp = O=C(O)[C@@H]1C[C@@H](O)CN1; Dab = NCC[C@H](N)C(=O)O; Aib = CC(C)(N)C(=O)O

Legend:
[1] = target: human melanocortin 1 receptor (human), Q01726; experiment: cell-based or functional assay
[2] = target: human melanocortin 4 receptor (human), P32245; experiment: cell-based or functional assay
[3] = target: human melanocortin 4 receptor (human), P32245; experiment: competition with 125-NDP-α-MSH, BHK human MC4R membranes
[4] = target: human melanocortin 4 receptor (human) (UniProt P32245); experiment: as above
[5] = target: human melanocortin 4 receptor (human) (UniProt P32245); experiment: cell-based or functional assay

Sequence of human melanocortin 4 receptor (human), P32245 (P32245 whole entry): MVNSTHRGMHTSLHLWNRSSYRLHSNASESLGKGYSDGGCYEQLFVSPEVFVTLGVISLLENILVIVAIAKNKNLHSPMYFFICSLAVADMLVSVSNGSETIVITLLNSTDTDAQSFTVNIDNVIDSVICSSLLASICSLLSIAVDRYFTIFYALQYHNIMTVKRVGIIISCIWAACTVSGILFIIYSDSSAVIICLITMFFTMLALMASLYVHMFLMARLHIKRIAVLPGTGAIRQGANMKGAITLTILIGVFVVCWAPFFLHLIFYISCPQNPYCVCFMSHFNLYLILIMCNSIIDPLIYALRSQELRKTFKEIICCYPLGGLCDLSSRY
Sequence of human melanocortin 4 receptor (human) (P32245 whole entry): as above
Sequence of human melanocortin 1 receptor (human), Q01726 (Q01726 whole entry): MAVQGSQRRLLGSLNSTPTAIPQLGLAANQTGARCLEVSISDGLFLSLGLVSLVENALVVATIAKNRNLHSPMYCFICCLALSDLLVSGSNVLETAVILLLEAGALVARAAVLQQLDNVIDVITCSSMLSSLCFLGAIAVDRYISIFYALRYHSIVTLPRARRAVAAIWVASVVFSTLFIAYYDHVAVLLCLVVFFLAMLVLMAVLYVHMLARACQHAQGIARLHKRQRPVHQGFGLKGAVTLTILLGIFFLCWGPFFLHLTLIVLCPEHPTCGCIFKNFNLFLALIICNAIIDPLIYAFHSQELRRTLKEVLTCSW

| MC1R cAMP EC50 [1] [nM] | MC4R cAMP EC50 [2] [nM] | Ki [3] [nM] | Ki [4] [nM] | MC4R cAMP EC50 [5] [nM] | Binder |
| --- | --- | --- | --- | --- | --- |
| 1.39 | 0.04 | 0.17 | – | – | CAHFRWCAAAAW (modifications not checked) [Chem. 87] |
| – | – | – | 0.19 | 0.06 | cyclo(CH[dF]RW[dA]CH[dF]RW[dA]) (disulfide 1-7; SMILES C[C@H]1NC(=O)[C@H](Cc2c[nH]c3ccccc23)NC(=O)[C@H](CCCNC(=N)N)NC(=O)[C@@H](Cc2ccccc2)NC(=O)[C@H](Cc2c[nH]cn2)NC(=O)[C@@H]2CSSC[C@H](NC1=O)C(=O)N[C@@H](Cc1c[nH]cn1)C(=O)N[C@H](Cc1ccccc1)C(=O)N[C@@H](CCCNC(=N)N)C(=O)N[C@@H](Cc1c[nH]c3ccccc13)C(=O)N[C@H](C)C(=O)N2) [Chem. 6] |
| 30.2 | 0.19 | 1.21 | – | – | CAHFRWCPPERW (modifications not checked) [Chem. 112] |
| – | – | – | 5.64 | 4.22 | cyclo(C[Aib][Hyp][dF]RWC[Aib][Hyp][dF]RW) (disulfide 1-7; SMILES CC1(C)NC(=O)[C@@H]2CSSC[C@H](NC(=O)[C@H](Cc3c[nH]c4ccccc34)NC(=O)[C@H](CCCNC(=N)N)NC(=O)[C@@H](Cc3ccccc3)NC(=O)[C@@H]3C[C@@H](O)CN3C1=O)C(=O)NC(C)(C)C(=O)N1C[C@H](O)C[C@H]1C(=O)N[C@H](Cc1ccccc1)C(=O)N[C@@H](CCCNC(=N)N)C(=O)N[C@@H](Cc1c[nH]c3ccccc13)C(=O)N2) [Chem. 38] |
| 6.36 | 0.1 | 0.26 | – | – | CAHFRWCRFFNAF (modifications not checked) [Chem. 13] |
| 31.9 | 1.53 | 50.9 | – | – | CAHFRWCAEEEW (modifications not checked) [Chem. 44] |
| 0.16 | 0.004 | 0.01 | – | – | CAHFRWCAKKKR (modifications not checked) [Chem. 59] |
| – | – | – | 27.8 | 19.8 | cyclo(C[dP]H[dF]RWC[dP]H[dF]RW) (disulfide 1-7; SMILES N=C(N)NCCC[C@@H]1NC(=O)[C@@H](Cc2ccccc2)NC(=O)[C@H](Cc2c[nH]cn2)NC(=O)[C@H]2CCCN2C(=O)[C@@H]2CSSC[C@H](NC(=O)[C@H](Cc3c[nH]c4ccccc34)NC1=O)C(=O)N1CCC[C@@H]1C(=O)N[C@@H](Cc1c[nH]cn1)C(=O)N[C@H](Cc1ccccc1)C(=O)N[C@@H](CCCNC(=N)N)C(=O)N[C@@H](Cc1c[nH]c3ccccc13)C(=O)N2) [Chem. 33] |
| 14.3 | 0.49 | 10.1 | – | – | CAHFRWCAEEAW (modifications not checked) [Chem. 102] |
| 3.97 | 0.07 | 0.28 | – | – | CAHFRWCRFFNA (modifications not checked) [Chem. 12] |
| – | – | – | 5.39 | 1.34 | CXHFXWCXHFXW (Aib 2, 8; D-Phe 4, 10; Cit 5, 11; disulphide Cys1-Cys7; head-to-tail amide Cys1-Trp12) [Chem. 41] |
| – | – | – | 2.61 | 0.44 | CXHFXWCXHFXW (Aib 2, 8; D-Phe 4, 10; AGP 5, 11; disulphide Cys1-Cys7; head-to-tail amide Cys1-Trp12) [Chem. 43] |
| – | – | – | 7.86 | 5.65 | cyclo(C[Aib]H[dF][Dab]WC[Aib]H[dF][Dab]W) (disulfide 1-7; SMILES CC1(C)NC(=O)[C@@H]2CSSC[C@H](NC(=O)[C@H](Cc3c[nH]c4ccccc34)NC(=O)[C@H](CCN)NC(=O)[C@@H](Cc3ccccc3)NC(=O)[C@H](Cc3c[nH]cn3)NC1=O)C(=O)NC(C)(C)C(=O)N[C@@H](Cc1c[nH]cn1)C(=O)N[C@H](Cc1ccccc1)C(=O)N[C@@H](CCN)C(=O)N[C@@H](Cc1c[nH]c3ccccc13)C(=O)N2) [Chem. 46] |
| 8.65 | 0.15 | 0.16 | – | – | CAHFRWCAYFKW (modifications not checked) [Chem. 80] |
| 0.22 | 0.01 | 0.02 | – | – | CAHFRWCAKKKR (modifications not checked) [Chem. 85] |
| 1.31 | 0.02 | 0.2 | – | – | CAHFRWCAAAAW (modifications not checked) [Chem. 88] |
| 2.17 | 0.03 | 0.25 | – | – | CAHFRWCAAFAW (modifications not checked) [Chem. 11] |
| – | – | – | 0.88 | 0.12 | cyclo(C[dV]H[dF]RWC[dV]H[dF]RW) (disulfide 1-7; SMILES CC(C)[C@H]1NC(=O)[C@@H]2CSSC[C@H](NC(=O)[C@H](Cc3c[nH]c4ccccc34)NC(=O)[C@H](CCCNC(=N)N)NC(=O)[C@@H](Cc3ccccc3)NC(=O)[C@H](Cc3c[nH]cn3)NC1=O)C(=O)N[C@H](C(C)C)C(=O)N[C@@H](Cc1c[nH]cn1)C(=O)N[C@H](Cc1ccccc1)C(=O)N[C@@H](CCCNC(=N)N)C(=O)N[C@@H](Cc1c[nH]c3ccccc13)C(=O)N2) [Chem. 34] |
| 0.31 | 0.01 | 0.04 | – | – | CAHFRWCAHFRW (modifications not checked) [Chem. 111] |
| 0.65 | 0.01 | 0.11 | – | – | CAHFRWCAAAAR (modifications not checked) [Chem. 90] |
| – | – | – | 9.6 | 14.5 | cyclo(C[dK]H[dF]HWC[dK]H[dF]HW) (disulfide 1-7; SMILES NCCCC[C@H]1NC(=O)[C@@H]2CSSC[C@H](NC(=O)[C@H](Cc3c[nH]c4ccccc34)NC(=O)[C@H](Cc3c[nH]cn3)NC(=O)[C@@H](Cc3ccccc3)NC(=O)[C@H](Cc3c[nH]cn3)NC1=O)C(=O)N[C@H](CCCCN)C(=O)N[C@@H](Cc1c[nH]cn1)C(=O)N[C@H](Cc1ccccc1)C(=O)N[C@@H](Cc1c[nH]cn1)C(=O)N[C@@H](Cc1c[nH]c3ccccc13)C(=O)N2) [Chem. 86] |
| 35.3 | 0.44 | 1.82 | – | – | CAHFRWCAHFRW (modifications not checked) [Chem. 56] |
| 0.19 | 0.04 | 0.05 | – | – | CAHFRWCKKKR (modifications not checked) [Chem. 101] |
| 0.59 | 0.02 | 0.07 | – | – | CAHFRWCAAAAR (modifications not checked) [Chem. 89] |
| 4.88 | – | – | – | – | CAHFRWCAHFRW (modifications not checked) [Chem. 10] |
| 1.76 | 0.02 | 0.08 | – | – | CAHFRWCAHFRW (modifications not checked) [Chem. 8] |
